A word on the Kd: it is the equilibrium constant for the complex coming apart. A higher Kd goes with lower affinity.

Kd data for three substances are collected here from article PMC3722283.

This assay deals with concanavalin A. Nature of the assay: SPR. On the technique in general: In SPR one partner is held on a chip, and binding of the other changes the refractive index at the surface.

In turn, “Man3GlcNAc2-RNase (glycoprotein 3) (from UniProt P61823 27-150) (natural protein)” had a Kd of 2.5 µM. In other words, the single-digit micromolar range.

As for “bovine ribonuclease B (native, carrying Man5-9 N-glycans) (from UniProt P61823 27-150) (natural protein)”, the equilibrium dissociation constant (Kd) turned out to be 1.2 µM.

Substance “monofluoro-Man3GlcNAc2 glycoform of RNase (glycoprotein 2) (from UniProt P61823 27-150) (natural protein)” displayed a Kd of 2.4 µM.
